Assay results from US6218168A, “Process for preparing O-acetylserine, L-cysteine and L-cysteine-related products” (Consortium fur elektrochemische Inudstrie GmbH, priority 1995, dated 2001).

Tested on: production strain JM15
Experiment: Cysteine production in 1 L fermenter, JM15 with plasmid-encoded cysE alleles
Assay type: cell-based, E. coli
Settings: 48 h, JM15 transformed with plasmid
Experimental: Influence of different, plasmid-encoded cysE alleles on the production of L-cysteine or products derived from L-cysteine in a 1 L fermenter using the host strain JM15 20 mL of LB medium (1% tryptone, 0.5% yeast extract, 0.5% NaCl) contained in a 100 mL Erlenmeyer flask were inoculated with a single colony of the production strain JM15 (CGSC#5042) which had been transformed with the respective cysE plasmid.
After having been incubated for 7 hours in a bacterial shaker (30° C., 150 rpm), the respective preliminary cultures were transferred to 100 mL of SM1 medium. The SM1 medium contained 5 g/L glucose, 5 mg/L vitamin B1, 3 g/l KH2 PO4, 12 g/L K2 HPO4, 0.3 g/L MgSO4×7 H2 O, 0.1 g/L NaCl, 5 g/L (NH4)2 SO4, 14.7 mg/L CaCl2×2 H2 O, 2 mg/L FeSO4×2 H2 O, 1 g/L Na3 citrate×2 H2 O, 1 ml/L trace element solution and 25 mg/L tetracycline. The trace element solution was composed of 0.15 g/L Na2 MoO4×2 H2 O, 2.5 g/L H3 BO3, 0.7 g/L CoCl2×6 H2 O, 0.25 g/L CuSO4×5 H2 O, 1.6 g/L MnCl2×4 H2 O and 0.3 g/L ZnSO4×7 H2 O. The cultures were shaken in 1 L Erlenmeyer flasks at 30° C. and at 150 rpm for 17 h. After this incubation, the OD600 was between 4 and 5. The subsequent fermentation was carried out in Braun-Melsungen BIOSTAT M research fermenters. A culturing vessel having a total volume of 2 L was used.
The fermentation medium contained 15 g/L glucose, 5 g/L NaCl, 0.3 g/L MgSO4×7 H2 O, 15 mg/L CaCl2×2 H2 O, 75 mg/L FeSO4×7 H2 O, 1 g/L Na3 citrate×2 H2 O, 1.5 g/L KH2 PO4, 1 mL of trace element solution (see above), 5 mg/L vitamin B1, 2.5 g/L yeast extract (Difco), 2.5 g/L tryptone (Difco) and 25 mg/L tetracycline.
The glucose concentration in the fermenter was initially adjusted to a value of 15 g/L by pumping in a 700 g/L (w/v) (sterilized) glucose solution, and the pH was adjusted to 7.0 by pumping in a 25% NH4 OH solution. After an OD600 of 10 had been reached, 300 mg per hour were supplied from a sterile 100 g/L (w/v) stock solution of thiosulfate. 100 mL of preliminary culture were pumped into the fermenter vessel for the inoculation. The starting volume was approximately 1 L. The cultures were initially stirred at 400 rpm and aerated with 1.5 vvm of compressed air which had been sterilized by passing through a sterile filter. The fermentation was carried out at a temperature of 30° C.
The pH was maintained at a value of 7.0 by means of automatic correction with 25% NH4 OH. The oxygen saturation in the fermentation broth had at no time during the fermentation to fall below 20%; the stirring speed was used to ensure this. The glucose content of the nutrient solution, the optical density and the cysteine content were determined at two- to three-hourly intervals. The glucose content was determined enzymically using a glucose analyzer from YSI. The concentration of the glucose was adjusted to between 10 and 20 g/L by means of continuously feeding in this compound.
The content of cysteine in the medium was determined […] from the cell-free super-natant of the sample using the method of Gaitonde, M. K. (1967), Biochem. J. 104, 627-633.
The fermentation was terminated after 44-50 h.

B1: cysEXI: double mutant Thr167->Ala167, Gly245->Ser245 (protein, UniProt P0A9D4 1-273, looked up, variant T167A G245S)
Serine acetyltransferase: MSCEELEIVWNNIKAEARTLADCEPMLASFYHATLLKHENLGSALSYMLANKLSSPIMPAIAIREVVEEAYAADPEMIASAACDIQAVRTRDPAVDKYSTPLLYLKGFHALQAYRIGHWLWNQGRRALAIFLQNQVSVTFQVDIHPAAKIGRGIMLDHATGIVVGEAAVIENDVSILQSVTLGGTGKSGGDRHPKIREGVMIGAGAKILGNIEVGRGAKIGAGSVVLQPVPPHTTAAGVPARIVSKPDSDKPSMDMDQHFNGINHTFEYGDGI
Cysteine yield: 3.4 g/L
